The supplement of paper PMC5998384

Columns and labels:
HeLa Kyoto [1] = assay: thermal stability score vs G1/S (z-score of summed log2 fold changes over temperatures); higher = more thermally stable than in G1/S
HeLa Kyoto [2] = assay: solubility change mitosis vs G1/S (difference of NP-40 vs SDS log2 ratios) (log2 ratio difference); higher = more soluble in mitosis
HeLa Kyoto [3] = assay: solubility in G1/S (NP-40 vs SDS abundance) (log2 ratio); higher = more soluble; settings: cell cycle stage: G1/S
HeLa Kyoto [4] = assay: melting temperature (median over replicates), in situ; higher = more thermally stable
[5] = cell cycle stage: early G1 (4.5 h after nocodazole release)
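Throughout, for melting temperature (median over replicates), in situ: HeLa Kyoto cells synchronized by double thymidine or nocodazole block, proteins quantified by TMT10plex mass spectrometry, three independent biological replicates.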
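Throughout, for solubility change mitosis vs G1/S (difference of NP-40 vs SDS log2 ratios): synchronized HeLa Kyoto cells (double thymidine block for G1/S, nocodazole release for mitosis), protein amounts in NP-40 versus SDS lysates quantified by mass spectrometry, three biological replicates.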
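Throughout, for solubility in G1/S (NP-40 vs SDS abundance): HeLa Kyoto cells arrested at G1/S by double thymidine block, proteins quantified by TMT10plex mass spectrometry in mild NP-40 versus SDS extracts, three biological replicates.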
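Throughout, for thermal stability score vs G1/S (z-score of summed log2 fold changes over temperatures): synchronized HeLa Kyoto cells, proteins quantified by TMT10plex mass spectrometry, three biological replicates, mitosis taken 0.5 h after nocodazole release, G1/S directly after double thymidine block.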

Substance | thermal stability score (HeLa Kyoto [1]; [5]) | thermal stability score (HeLa Kyoto [1]; cell cycle stage: mitosis) | solubility change mitosis (log2) (HeLa Kyoto [2]) | solubility in G1/S (log2) (HeLa Kyoto [3]) | melting temperature (HeLa Kyoto [4]; cell cycle stage: G1/S) [°C] | melting temperature (HeLa Kyoto [4]; cell cycle stage: mitosis) [°C]
MAARLVSRCGAVRAAPHSGPLVSWRRWSGASTDTVYDVVVSGGGLVGAAMACALGYDIHFHDKKILLLEAGPKKVLEKLSETYSNRVSSISPGSATLLSSFGAWDHICNMRYRAFRRMQVWDACSEALIMFDKDNLDDMGYIVENDVIMHALTKQLEAVSDRVTVLYRSKAIRYTWPCPFPMADSSPWVHITLGDGSTFQTKLLIGADGHNSGVRQAVGIQNVSWNYDQSAVVATLHLSEATENNVAWQRFLPSGPIALLPLSDTLSSLVWSTSHEHAAELVSMDEEKFVDAVNSAFWSDADHTDFIDTAGAMLQYAVSLLKPTKVSARQLPPSVARVDAKSRVLFPLGLGHAAEYVRPRVALIGDAAHRVHPLAGQGVNMGFGDISSLAHHLSTAAFNGKDLGSVSHLTGYETERQRHNTALLAATDLLKRLYSTSASPLVLLRTWGLQATNAVSPLKEQIMAFASK [COQ6] | 1.7 | 2.05 | -0.0137 | -0.0254 | 54.8 | 55.1
MAVLAALLRSGARSRSPLLRRLVQEIRYVERSYVSKPTLKEVVIVSATRTPIGSFLGSLSLLPATKLGSIAIQGAIEKAGIPKEEVKEAYMGNVLQGGEGQAPTRQAVLGAGLPISTPCTTINKVCASGMKAIMMASQSLMCGHQDVMVAGGMESMSNVPYVMNRGSTPYGGVKLEDLIVKDGLTDVYNKIHMGSCAENTAKKLNIARNEQDAYAINSYTRSKAAWEAGKFGNEVIPVTVTVKGQPDVVVKEDEEYKRVDFSKVPKLKTVFQKENGTVTAANASTLNDGAAALVLMTADAAKRLNVTPLARIVAFADAAVEPIDFPIAPVYAASMVLKDVGLKKEDIAMWEVNEAFSLVVLANIKMLEIDPQKVNINGGAVSLGHPIGMSGARIVGHLTHALKQGEYGLASICNGGGGASAMLIQKL [ACAT1] | -1.2 | 0.833 | -0.0153 | 0.493 | 54.5 | 54.8
MADGVDHIDIYADVGEEFNQEAEYGGHDQIDLYDDVISPSANNGDAPEDRDYMDTLPPTVGDDVGKGAAPNVVYTYTGKRIALYIGNLTWWTTDEDLTEAVHSLGVNDILEIKFFENRANGQSKGFALVGVGSEASSKKLMDLLPKRELHGQNPVVTPCNKQFLSQFEMQSRKTTQSGQMSGEGKAGPPGGSSRAAFPQGGRGRGRFPGAVPGGDRFPGPAGPGGPPPPFPAGQTPPRPPLGPPGPPGPPGPPPPGQVLPPPLAGPPNRGDRPPPPVLFPGQPFGQPPLGPLPPGPPPPVPGYGPPPGPPPPQQGPPPPPGPFPPRPPGPLGPPLTLAPPPHLPGPPPGAPPPAPHVNPAFFPPPTNSGMPTSDSRGPPPTDPYGRPPPYDRGDYGPPGREMDTARTPLSEAEFEEIMNRNRAISSSAISRAVSDASAGDYGSAIETLVTAISLIKQSKVSADDRCKVLISSLQDCLHGIESKSYGSGSRRERSRERDHSRSREKSRRHKSRSRDRHDDYYRERSRERERHRDRDRDRDRERDREREYRHR [CPSF6] | -1.57 | -2.72 | 0.0573 | -0.195 | 53 | 53.2
MDAKARNCLLQHREALEKDIKTSYIMDHMISDGFLTISEEEKVRNEPTQQQRAAMLIKMILKKDNDSYVSFYNALLHEGYKDLAALLHDGIPVVSSSSGKDSVSGITSYVRTVLCEGGVPQRPVVFVTRKKLVNAIQQKLSKLKGEPGWVTIHGMAGCGKSVLAAEAVRDHSLLEGCFPGGVHWVSVGKQDKSGLLMKLQNLCTRLDQDESFSQRLPLNIEEAKDRLRILMLRKHPRSLLILDDVWDSWVLKAFDSQCQILLTTRDKSVTDSVMGPKYVVPVESSLGKEKGLEILSLFVNMKKADLPEQAHSIIKECKGSPLVVSLIGALLRDFPNRWEYYLKQLQNKQFKRIRKSSSYDYEALDEAMSISVEMLREDIKDYYTDLSILQKDVKVPTKVLCILWDMETEEVEDILQEFVNKSLLFCDRNGKSFRYYLHDLQVDFLTEKNCSQLQDLHKKIITQFQRYHQPHTLSPDQEDCMYWYNFLAYHMASAKMHKELCALMFSLDWIKAKTELVGPAHLIHEFVEYRHILDEKDCAVSENFQEFLSLNGHLLGRQPFPNIVQLGLCEPETSEVYQQAKLQAKQEVDNGMLYLEWINKKNITNLSRLVVRPHTDAVYHACFSEDGQRIASCGADKTLQVFKAETGEKLLEIKAHEDEVLCCAFSTDDRFIATCSVDKKVKIWNSMTGELVHTYDEHSEQVNCCHFTNSSHHLLLATGSSDCFLKLWDLNQKECRNTMFGHTNSVNHCRFSPDDKLLASCSADGTLKLWDATSANERKSINVKQFFLNLEDPQEDMEVIVKCCSWSADGARIMVAAKNKIFLFDIHTSGLLGEIHTGHHSTIQYCDFSPQNHLAVVALSQYCVELWNTDSRSKVADCRGHLSWVHGVMFSPDGSSFLTSSDDQTIRLWETKKVCKNSAVMLKQEVDVVFQENEVMVLAVDHIRRLQLINGRTGQIDYLTEAQVSCCCLSPHLQYIAFGDENGAIEILELVNNRIFQSRFQHKKTVWHIQFTADEKTLISSSDDAEIQVWNWQLDKCIFLRGHQETVKDFRLLKNSRLLSWSFDGTVKVWNIITGNKEKDFVCHQGTVLSCDISHDATKFSSTSADKTAKIWSFDLLLPLHELRGHNGCVRCSAFSVDSTLLATGDDNGEIRIWNVSNGELLHLCAPLSEEGAATHGGWVTDLCFSPDGKMLISAGGYIKWWNVVTGESSQTFYTNGTNLKKIHVSPDFKTYVTVDNLGILYILQTLE [APAF1] | -0.116 | 0.0498 | -0.0529 | -0.414 | 51.2 | 49.7
MASIWVGHRGTVRDYPDFSPSVDAEAIQKAIRGIGTDEKMLISILTERSNAQRQLIVKEYQAAYGKELKDDLKGDLSGHFEHLMVALVTPPAVFDAKQLKKSMKGAGTNEDALIEILTTRTSRQMKDISQAYYTVYKKSLGDDISSETSGDFRKALLTLADGRRDESLKVDEHLAKQDAQILYKAGENRWGTDEDKFTEILCLRSFPQLKLTFDEYRNISQKDIVDSIKGELSGHFEDLLLAIVNCVRNTPAFLAERLHRALKGIGTDEFTLNRIMVSRSEIDLLDIRTEFKKHYGYSLYSAIKSDTSGDYEITLLKICGGDD [ANXA3] | -0.635 | -1.21 | -0.0404 | 0.2 | 52.3 | 52.2
MAVETLSPDWEFDRVDDGSQKIHAEVQLKNYGKFLEEYTSQLRRIEDALDDSIGDVWDFNLDPIALKLLPYEQSSLLELIKTENKVLNKVITVYAALCCEIKKLKYEAETKFYNGLLFYGEGATDASMVEGDCQIQMGRFISFLQELSCFVTRCYEVVMNVVHQLAALYISNKIAPKIIETTGVHFQTMYEHLGELLTVLLTLDEIIDNHITLKDHWTMYKRLLKSVHHNPSKFGIQEEKLKPFEKFLLKLEGQLLDGMIFQACIEQQFDSLNGGVSVSKNSTFAEEFAHSIRSIFANVEAKLGEPSEIDQRDKYVGICGLFVLHFQIFRTIDKKFYKSLLDICKKVPAITLTANIIWFPDNFLIQKIPAAAKLLDRKSLQAIKIHRDTFLQQKAQSLTKDVQSYYVFVSSWMMKMESILSKEQRMDKFAEDLTNRCNVFIQGFLYAYSISTIIKTTMNLYMSMQKPMTKTSVKALCRLVELLKAIEHMFYRRSMVVADSVSHITQHLQHQALHSISVAKKRVISDKKYSEQRLDVLSALVLAENTLNGPSTKQRRLIVSLALSVGTQMKTFKDEELFPLQVVMKKLDLISELRERVQTQCDCCFLYWHRAVFPIYLDDVYENAVDAARLHYMFSALRDCVPAMMHARHLESYEILLDCYDKEIMEILNEHLLDKLCKEIEKDLRLSVHTHLKLDDRNPFKVGMKDLALFFSLNPIRFFNRFIDIRAYVTHYLDKTFYNLTTVALHDWATYSEMRNLATQRYGLVMTEAHLPSQTLEQGLDVLEIMRNIHIFVSRYLYNLNNQIFIERTSNNKHLNTINIRHIANSIRTHGTGIMNTTVNFTYQFLKKKFYIFSQFMYDEHIKSRLIKDIRFFREIKDQNDHKYPFDRAEKFNRGIRKLGVTPEGQSYLDQFRQLISQIGNAMGYVRMIRSGGLHCSSNAIRFVPDLEDIVNFEELVKEEGLAEETLKAARHLDSVLSDHTRNSAEGTEYFKMLVDVFAPEFRRPKNIHLRNFYIIVPPLTLNFVEHSISCKEKLNKKNKIGAAFTDDGFAMGVAYILKLLDQYREFDSLHWFQSVREKYLKEIRAVAKQQNVQSASQDEKLLQTMNLTQKRLDVYLQEFELLYFSLSSARIFFRADKTAAEENQEKKEKEEETKTSNGDLSDSTVSADPVVK [KIAA1033] | 0.475 | 0.963 | -0.0953 | -0.393 | 49.7 | 49.7
MENQVLTPHVYWAQRHRELYLRVELSDVQNPAISITENVLHFKAQGHGAKGDNVYEFHLEFLDLVKPEPVYKLTQRQVNITVQKKVSQWWERLTKQEKRPLFLAPDFDRWLDESDAEMELRAKEEERLNKLRLESEGSPETLTNLRKGYLFMYNLVQFLGFSWIFVNLTVRFCILGKESFYDTFHTVADMMYFCQMLAVVETINAAIGVTTSPVLPSLIQLLGRNFILFIIFGTMEEMQNKAVVFFVFYLWSAIEIFRYSFYMLTCIDMDWKVLTWLRYTLWIPLYPLGCLAEAVSVIQSIPIFNETGRFSFTLPYPVKIKVRFSFFLQIYLIMIFLGLYINFRHLYKQRRRRYGQKKKKIH [HACD3] | -0.451 | -1.3 | -0.00775 | -0.3 | 53.8 | 53.9
MNTVLSRANSLFAFSLSVMAALTFGCFITTAFKDRSVPVRLHVSRIMLKNVEDFTGPRERSDLGFITFDITADLENIFDWNVKQLFLYLSAEYSTKNNALNQVVLWDKIVLRGDNPKLLLKDMKTKYFFFDDGNGLKGNRNVTLTLSWNVVPNAGILPLVTGSGHVSVPFPDTYEITKSY [SPCS3] | 0.503 | 1.67 | -0.0576 | 0.0331 | 53.5 | 53.8
MAEQATKSVLFVCLGNICRSPIAEAVFRKLVTDQNISENWRVDSAATSGYEIGNPPDYRGQSCMKRHGIPMSHVARQITKEDFATFDYILCMDESNLRDLNRKSNQVKTCKAKIELLGSYDPQKQLIIEDPYYGNDSDFETVYQQCVRCCRAFLEKAH [ACP1] | -0.241 | -0.21 | -0.0468 | 0.178 | 50.2 | 51
MGCCSSASSAAQSSKREWKPLEDRSCTDIPWLLLFILFCIGMGFICGFSIATGAAARLVSGYDSYGNICGQKNTKLEAIPNSGMDHTQRKYVFFLDPCNLDLINRKIKSVALCVAACPRQELKTLSDVQKFAEINGSALCSYNLKPSEYTTSPKSSVLCPKLPVPASAPIPFFHRCAPVNISCYAKFAEALITFVSDNSVLHRLISGVMTSKEIILGLCLLSLVLSMILMVIIRYISRVLVWILTILVILGSLGGTGVLWWLYAKQRRSPKETVTPEQLQIAEDNLRALLIYAISATVFTVILFLIMLVMRKRVALTIALFHVAGKVFIHLPLLVFQPFWTFFALVLFWVYWIMTLLFLGTTGSPVQNEQGFVEFKISGPLQYMWWYHVVGLIWISEFILACQQMTVAGAVVTYYFTRDKRNLPFTPILASVNRLIRYHLGTVAKGSFIITLVKIPRMILMYIHSQLKGKENACARCVLKSCICCLWCLEKCLNYLNQNAYTATAINSTNFCTSAKDAFVILVENALRVATINTVGDFMLFLGKVLIVCSTGLAGIMLLNYQQDYTVWVLPLIIVCLFAFLVAHCFLSIYEMVVDVLFLCFAIDTKYNDGSPGREFYMDKVLMEFVENSRKAMKEAGKGGVADSRELKPMASGASSA [SLC44A1] | -1.35 | -2.05 | -0.147 | -0.0157 | 55.7 | –
PTPN23 | -1.39 | -2.28 | -0.134 | 0.216 | 49.6 | 49.2
